Tests used:
[1] = biological target: CD4 on chimp PBMC cells (chimp) (UniProt P16004); test: flow cytometry, chimp PBMC X282; 1st Leu3a binding, 2nd B4 exposure; Leu3a+ B4- population
[2] = biological target: CD4 on chimp PBMC cells (chimp) (UniProt P16004); test: flow cytometry, chimp PBMC X282; 1st B4 binding, 2nd Leu3a exposure; Leu3a+ B4- population; competitor B4 pre-bound
[3] = biological target: CD4 on chimp PBMC cells (chimp) (UniProt P16004); test: flow cytometry, chimp PBMC X301; 1st B4 binding, 2nd Leu3a exposure; double stained population; competitor B4 pre-bound
[4] = biological target: CD4 on chimp PBMC cells (chimp) (UniProt P16004); test: flow cytometry, chimp PBMC X301, single label control Leu3a-PE
[5] = biological target: CD4 on chimp PBMC cells (chimp) (UniProt P16004); test: flow cytometry, chimp PBMC X282; 1st B4 binding, 2nd Leu3a exposure; double stained population; competitor B4 pre-bound
[6] = biological target: CD4 on chimp PBMC cells (chimp) (UniProt P16004); test: flow cytometry, chimp PBMC X301; 1st Leu3a binding, 2nd B4 exposure; Leu3a+ B4- population
[7] = biological target: CD4 on chimp PBMC cells (chimp) (UniProt P16004); test: flow cytometry, chimp PBMC X301; 1st B4 binding, 2nd Leu3a exposure; Leu3a+ B4- population; competitor B4 pre-bound
[8] = biological target: CD4 on chimp PBMC cells (chimp) (UniProt P16004); test: flow cytometry, chimp PBMC X282, single label control Leu3a-PE

percent positive PBMC [1]: 0.1%
percent positive PBMC [2]: 0%
percent positive PBMC [3]: 3%
percent positive PBMC [4]: 44%
percent positive PBMC [5]: 1.2%
percent positive PBMC [6]: 0.3%
percent positive PBMC [7]: 0%
percent positive PBMC [8]: 25.5%
Substance: Leu3a (antibody)

From patent publication US20190194326A1
